Reference: paper PMC7719796, “Structural Insights on Tiny Peptide Nucleic Acid (PNA) Analogues of miRNA-34a: An in silico and Experimental Integrated Approach” (Frontiers in Chemistry, 2020)

Tested on: Kelly neuroblastoma cells
Assay: PNA cellular uptake assay (fluorescence of cell lysate)
Assay type: cell-based, Human
Conditions: 0.1 μM in Opti-MEM, no transfecting agent, 24 h incubation (text; method: 6 h at 37°C, then 48 h), fluorescence of cell lysate and media 485/535 nm, 3 biological repeats and 4 technical repeats
Source text: Cellular uptake of the described tiny PNA sequence was studied in vitro on Human Kelly neuroblastoma cell line, without the use of any transfection agents, and compared to previously reported results from our group (Piacenti et al., [2019]). In particular, the PNA oligomers were provided with short peptide carriers at both termini consisting of a trilysines segment at the C-terminus and one lysine at the N-terminus (FITC-PNA2) or Cys-Lys dipeptide at the N-terminus (FITC-PNA3) (Table 1), that was previously reported by Fabani et al. ([2010]) to promote cellular uptake for PNA single strands. Kelly cells were incubated for 24 h with FITC-PNA2 or FITC-PNA3 sequences individually, at minimal 0.1 μM concentration in optiMEM, without the use of any transfecting agent and using a protocol for miRNA mimics delivery, which was previously optimized (Curtin, [2018]). Both peptide carriers were able to provide internalization of PNA sequences albeit to a different extent (Figure 9A); uptake was slightly higher than 3% for FITC-PNA2 and almost 5% for FITC-PNA3.
Kelly cells were seeded in 6-well plates in duplicates at 0.5 × 10^6 density. […] The fluorescence of the cell lysate and of the media was read in a dual beam plate reader, at 485/535 nm.

## FITC- Ahx -K- tggcagtg—KKK-NH2 [FITC-PNA2, PNA1 with K at N-terminus and KKK at C-terminus, Ahx linker and FITC fluorescent tag]
  Cellular uptake (internalization): higher than 3%

## FITC- Ahx -CK - tggcagtg—KKK- NH2 [FITC-PNA3, PNA1 with Cys-Lys at N-terminus and KKK at C-terminus, FITC-Ahx; reported in previous work, used for comparison]
  Cellular uptake (internalization): ~5%
